# B1: humanized TSC249 Scorpion (huVL-VH#2 107-1A4 scFv-Fc-DRA222 scFv) (bispecific antibody)
# chain: DIQMTQSPSAMSASVGDRVTITCRASKSISKYLAWFQQKPGKVPKLRIHSGSTLQSGVPSRFSGSGSGTEFTLTISSLQPEDFATYYCQQHIEYPWTFGQGTKVEIKRGGGGSGGGGSGGGGSQVQLVQSGAEVKKPGASVKVSCKASGYTFTDYYMHWVRQAPGQGLEWMGYFNPYNDYTRYAQKFQGRVTMTRDTSISTAYMELSSLRSDDTAVYYCARSDGYYDAMDYWGQGTTVTVSSSEPKSSDKTHTCPPCPAPEAAGAPSVFLFPPKPKDTLMISRTPEVTCVVVDVSHEDPEVKFNWYVDGVEVHNAKTKPREEQYNSTYRVVSVLTVLHQDWLNGKAYACAVSNKALPAPIEKTISKAKGQPREPQVYTLPPSRDELTKNQVSLTCLVKGFYPSDIAVEWESNGQPENNYKTTPPVLDSDGSFFLYSKLTVDKSRWQQGNVFSCSVMHEALHNHYTQKSLSLSPGQRHNNSSLNTGTQMAGHSPNSQVQLVESGGGVVQPGRSLRLSCKASGYTFTRSTMHWVRQAPGQGLEWIGYINPSSAYTNYNQKFKDRFTISADKSKSTAFLQMDSLRPEDTGVYFCARPQVHYDYNGFPYWGQGTPVTVSSGGGGSGGGGSGGGGSAQDIQMTQSPSSLSASVGDRVTMTCSASSSVSYMNWYQQKPGKAPKRWIYDSSKLASGVPARFSGSGSGTDYTLTISSLQPEDFATYYCQQWSRNPPTFGGGTKLQITSSS
# notes: also called anti-PSMA x anti-CD3 bispecific polypeptide homodimer
# B2: TSC194 (huVL-VH#2 107-1A4 scFv-Fc-Cris7 scFv) (bispecific antibody)
# chain: DIQMTQSPSAMSASVGDRVTITCRASKSISKYLAWFQQKPGKVPKLRIHSGSTLQSGVPSRFSGSGSGTEFTLTISSLQPEDFATYYCQQHIEYPWTFGQGTKVEIKRGGGGSGGGGSGGGGSQVQLVQSGAEVKKPGASVKVSCKASGYTFTDYYMHWVRQAPGQGLEWMGYFNPYNDYTRYAQKFQGRVTMTRDTSISTAYMELSSLRSDDTAVYYCARSDGYYDAMDYWGQGTTVTVSSSEPKSSDKTHTCPPCPAPEAAGAPSVFLFPPKPKDTLMISRTPEVTCVVVDVSHEDPEVKFNWYVDGVEVHNAKTKPREEQYNSTYRVVSVLTVLHQDWLNGKAYACAVSNKALPAPIEKTISKAKGQPREPQVYTLPPSRDELTKNQVSLTCLVKGFYPSDIAVEWESNGQPENNYKTTPPVLDSDGSFFLYSKLTVDKSRWQQGNVFSCSVMHEALHNHYTQKSLSLSPGQRHNNSSLNTGTQMAGHSPNSQVQLVQSGGGVVQPGRSLRLSCKASGYTFTRSTMHWVRQAPGKGLEWIGYINPSSAYTNYNQKFKDRFTISADKSKSTAFLQMDSLRPEDTGVYFCARPQVHYDYNGFPYWGQGTPVTVSSGGGGSGGGGSGGGGSAQDIQMTQSPSSLSASVGDRVTMTCSASSSVSYMNWYQQKPGKAPKRWIYDSSKLASGVPARFSGSGSGTDYTLTISSLQPEDFATYYCQQWSRNPPTFGGGTKLQITR
# B3: TSC228 (HD37 x DRA222 scFv heterodimer) (bispecific antibody)
# chain 1: DIVLTQSPASLAVSLGQRATISCKASQSVDYDGDSYLNWYQQIPGQPPKLLIYDASNLVSGIPPRFSGSGSGTDFTLNIHPVEKVDAATYHCQQSTEDPWTFGGGTKLEIKGGGGSGGGGSGGGGASQVQLQQSGAELVRPGSSVKISCKASGYAFSSYWMNWVKQRPGQGLEWIGQIWPGDGDTNYNGKFKGKATLTADESSSTAYMQLSSLASEDSAVYFCARRETTTVGRYYYAMDYWGQGTSVTVSSSEPKSSDKTHTCPPCPAPEAAGAPSVFLFPPKPKDTLMISRTPEVTCVVVDVSHEDPEVKFNWYVDGVEVHNAKTKPREEQYNSTYRVVSVLTVLHQDWLNGKAYACAVSNKALPAPIEKTISKAKGQPREPQVYTLPPSRDELTKNQVSLTCLVKGFYPSDIAVEWESNGQPENNYKTTPPVLDSDGSFFLYSKLTVDKSRWQQGNVFSCSVMHEALHNHYTQKSLSLSPGKSRASTKGPSVFPLAPSSKSTSGGTAALGCLVKDYFPEPVTVSWNSGALTSGVHTFPAVLQSSGLYSLSSVVTVPSSSLGTQTYICNVNHKPSNTKVDKKV
# chain 2: QVQLVESGGGVVQPGRSLRLSCKASGYTFTRSTMHWVRQAPGQGLEWIGYINPSSAYTNYNQKFKDRFTISADKSKSTAFLQMDSLRPEDTGVYFCARPQVHYDYNGFPYWGQGTPVTVSSGGGGSGGGGSGGGGSAQDIQMTQSPSSLSASVGDRVTMTCSASSSVSYMNWYQQKPGKAPKRWIYDSSKLASGVPARFSGSGSGTDYTLTISSLQPEDFATYYCQQWSRNPPTFGGGTKLQITSSSEPKSSDKTHTCPPCPAPEAAGAPSVFLFPPKPKDTLMISRTPEVTCVVVDVSHEDPEVKFNWYVDGVEVHNAKTKPREEQYNSTYRVVSVLTVLHQDWLNGKAYACAVSNKALPAPIEKTISKAKGQPREPQVYTLPPSRDELTKNQVSLTCLVKGFYPSDIAVEWESNGQPENNYKTTPPVLDSDGSFFLYSKLTVDKSRWQQGNVFSCSVMHEALHNHYTQKSLSLSPGKSRTVAAPSVFIFPPSDEQLKSGTASVVCLLNYFYPREAKVQWKVDNALQSGNSQESATEQDSKDSTYSLSSELTLSKADYEKHKVYACEVTHQGLSSPVTKSFNRGE
# notes: TSC049 is HD37 scFv-hinge-CH2-CH3-CH1; TSC222 is DRA222 scFv-hinge-CH2-CH3-CK(YAE); also called anti-CD19 x anti-CD3 bispecific polypeptide heterodimer; TSC049 + TSC222
# Key:
# CD3 [1] = target: T1, CD3 (human, UniProt P07766 23-207); test: cell-based or functional assay
# T1 sequence (P07766 23-207): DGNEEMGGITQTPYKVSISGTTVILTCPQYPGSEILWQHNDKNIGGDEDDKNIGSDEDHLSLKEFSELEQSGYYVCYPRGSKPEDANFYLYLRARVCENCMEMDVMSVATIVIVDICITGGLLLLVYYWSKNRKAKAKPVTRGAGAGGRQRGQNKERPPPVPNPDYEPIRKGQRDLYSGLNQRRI
# CD3 [2] = target: T1, CD3; test: flow cytometry on Jurkat (CD3+) cells, goat anti-human IgG-FITC detection
# Experimental: Jurkat (CD3⁺) T cell leukemia cells were obtained from ATCC (Manassas, Va.), and cultured according to the protocol provided by ATCC. Binding was assessed by incubating 5×10⁵ Jurkat cells for 30 minutes at 4° C. with serially diluted bispecific molecules TSC228 or TSC249, in concentrations from 250 nM to 0.125 nM (TSC249) or 125 nM to 1 pM (TSC228). The cells were washed three times and then incubated with goat anti-human IgG-FITC (1:200 dilution) for another 30 minutes at 4° C. The cells were then washed again three times, fixed in 1% paraformaldehyde and read on a FACS-Calibur instrument.
Binder,EC50 for RTCC (CD3 [1]),EC50 (CD3 [2])
B1,0.0029 nM,1.9 nM
B2,0.0028 nM,–
B3,–,24.5 nM

# From patent US20150232557A1 (APTEVO RESEARCH AND DEVELOPMENT, published 2015)
